In assay [1] the target is T1, [D-Trp6]LHRH (Homo sapiens, UniProt P01148, D-Trp6 analog, 125I-labeled radioligand). Description: radioligand competition assay, tumor membranes (patient 9).
For assay [2], the target named is T1, [D-Trp6]LHRH. As to the kind of experiment: radioligand competition assay, tumor membranes (patient 12). A general note: In a radioligand displacement assay an active substance lowers the binding of a labelled ligand.
Assay [3] deals with T1, [D-Trp6]LHRH. Description: radioligand competition assay, tumor membranes (patient 4).
The target of assay [4] is T1, [D-Trp6]LHRH. As to the kind of experiment: radioligand competition assay, tumor membranes (patient 30).
In assay [5] the target is T1, [D-Trp6]LHRH. As to the kind of experiment: radioligand competition assay, tumor membranes (mean of 7 specimens).
Assay [6] concerns the target T1, [D-Trp6]LHRH. Description: radioligand competition assay, tumor membranes (patient 6).
Assay [7] has as its target T1, [D-Trp6]LHRH. As to the kind of experiment: radioligand competition assay, tumor membranes (patient 15).
Assay [8] has as its target T1, [D-Trp6]LHRH. As to the kind of experiment: radioligand competition assay, tumor membranes (patient 35).

B1: type I LHRH receptor (protein)
chain: MANSASPEQNQNHCSAINNSIPLMQGNLPTLTLSGKIRVTVTFFLFLLSATFNASFLLKLQKWTQKKEKGKKLSRMKLLLKHLTLANLLETLIVMPLDGMWNITVQWYAGELLCKVLSYLKLFSMYAPAFMMVVISLDRSLAITRPLALKSNSKVGQSMVGLAWILSSVFAGPQLYIFRMIHLADSSGQTKVFSQCVTHCSFSQWWHQAFYNFFTFSCLFIIPLFIMLICNAKIIFTLTRVLHQDPHELQLNQSKNNIPRARLKTLKMTVAFATSFTVCWTPYYVLGIWYWFDPEMLNRLSDPVNHFFFLFAFLNPCFDPLIYGYFSL
Broadly, the Kd is the concentration at which binding is half-saturated. With B1, the Kd in assay [D-Trp6]LHRH [1] came to 3.73 nM; in assay [D-Trp6]LHRH [2], 6.03 nM; in assay [D-Trp6]LHRH [3], 1.35 nM; in assay [D-Trp6]LHRH [4] it was 6.36 nM; in assay [D-Trp6]LHRH [5] it was 3.69 nM; in assay [D-Trp6]LHRH [6], 1.37 nM. Also, the Kd in assay [D-Trp6]LHRH [7] worked out at 4.81 nM; in assay [D-Trp6]LHRH [8] it was 2.18 nM.

The values above are taken from article PMC3858558 (2013).
